Measured values published in PMC5549770, “Human cytomegalovirus IE1 downregulates Hes1 in neural progenitor cells as a potential E3 ubiquitin ligase” (PLoS Pathogens, 2017).

What was measured:
His-IE1 (pET-IE1) [1] = molecular target: T1, His-IE1 (pET-IE1) (human cytomegalovirus (Towne strain), UniProt P03169 1-491); test: pull-down; purified His-Sp100A mixed with Ubc5a in the presence of purified His-IE1; Sp100A- or Ubc5a-directed IP, IB; Buffer A, 4°C; conditions: both partners purified
T1 construct: HCMV IE1 (UL123), wild type, cloned into pET28a; 491 amino acids (Towne); also called purified IE1; source: E. coli BL21, purified (cOmplete His-Tag Purification Resin); not shown: His6, N-terminal, kept
T1 sequence: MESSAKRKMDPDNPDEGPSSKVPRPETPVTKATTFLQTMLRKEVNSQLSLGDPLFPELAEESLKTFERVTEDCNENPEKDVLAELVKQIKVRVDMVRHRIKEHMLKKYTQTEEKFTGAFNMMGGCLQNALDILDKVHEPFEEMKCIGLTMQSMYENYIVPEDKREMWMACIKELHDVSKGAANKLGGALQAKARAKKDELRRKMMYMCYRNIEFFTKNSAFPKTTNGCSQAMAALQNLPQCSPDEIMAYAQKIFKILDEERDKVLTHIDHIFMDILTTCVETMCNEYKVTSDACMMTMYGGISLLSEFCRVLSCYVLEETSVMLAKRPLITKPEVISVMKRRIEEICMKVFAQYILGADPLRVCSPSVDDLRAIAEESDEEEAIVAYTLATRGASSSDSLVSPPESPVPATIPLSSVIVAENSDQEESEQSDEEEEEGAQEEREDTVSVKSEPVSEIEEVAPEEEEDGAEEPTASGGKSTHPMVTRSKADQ

His-IE1 (pET-IE1) [2] = molecular target: T1, His-IE1 (pET-IE1); test: pull-down; in vitro pull-down: 1μg of each purified His-tagged protein (His-IE1 or His-Δ451–475 with His-Hes1) mixed in 300μl Buffer A (50mM NaH2PO4, 300mM NaCl, pH 8.0), antibody overnight at 4°C, protein A+G agarose; conditions: both partners purified

B1: His-Sp100A (pET-Sp100A) (natural protein)
chain: not shown
notes: human Sp100A (isoform A of the nuclear autoantigen Sp-100) cloned into pET28a; also called purified Sp100A; source: E. coli BL21, purified (cOmplete His-Tag Purification Resin); not shown: His6, N-terminal, kept
binding result (His-IE1 (pET-IE1) [1]): binds

B2: His-Hes1 (pET-Hes1) (natural protein, human, UniProt Q14469 1-280, looked up)
chain: MPADIMEKNSSSPVAATPASVNTTPDKPKTASEHRKSSKPIMEKRRRARINESLSQLKTLILDALKKDSSRHSKLEKADILEMTVKHLRNLQRAQMTAALSTDPSVLGKYRAGFSECMNEVTRFLSTCEGVNTEVRTRLLGHLANCMTQINAMTYPGQPHPALQAPPPPPPGPGGPQHAPFAPPPPLVPIPGGAAPPPGGAPCKLGSQAGEAAKVFGGFQVVPAPDGQFAFLIPNGAFAHSGPVIPVYTSNSGTSVGPNAVSPSSGPSLTADSMWRPWRN
notes: human Hes1 cloned into pET28a; also called purified Hes1; source: E. coli BL21, purified (cOmplete His-Tag Purification Resin); not shown: His6, N-terminal, kept
binding result (His-IE1 (pET-IE1) [2]): binds
